This is an account of results in ChEMBL document CHEMBL1137897, “Inhibition of lysosomal cysteine proteases by chrysotherapeutic compounds: a possible mechanism for the antiarthritic activity of Au(I)” (Bioorg Med Chem Lett, 2004).

In data set [1] the target is AURANOFIN
As to conditions: Paramecium tetraurelia; 3 uM.
Description: Michaelis-Menten constant determined against Paramecium tetraurelia cathepsin L at 3 uM

For data set [2], the target named is AURANOFIN
As to conditions: Paramecium tetraurelia; 300 uM.
Description: Michaelis-Menten constant determined against Paramecium tetraurelia cathepsin L at 300 uM

For data set [3], the target named is AURANOFIN
As to conditions: Paramecium tetraurelia; 300 nM.
Description: Michaelis-Menten constant determined against Paramecium tetraurelia cathepsin L at 300 nM

The target in data set [4] is AURANOFIN
Description: Michaelis-Menten constant determined against Paramecium tetraurelia cathepsin L at 30 uM
As to conditions: Paramecium tetraurelia; 30 uM.

B1: Putative cathepsin L 3 (Paramecium tetraurelia), Q94715 (protein)
chain: MKQFLTAAIVTLLMTAGYYHLQEDDTNDFERWALKNNKFYTESEKLYRMEIYNSNKRMIEEHNQREDVTYQMGENQFMTLSHEEFVDLYLQKSDSSVNIMGASLPEVQLEGLGAVDWRNYTTVKEQGQCASGWAFSVSNSLEAWYAIRGFQKINASTQQIVDCDYNNTGCSGGYNAYAMEYVLRVGLVSSTNYPYVAKNQTCKQSRNGTYFINGYSFVGGSQSNLQYYLNNYPISVGVEASNWQFYRSGLFSNCSSNGTNHYALAVGFDSANNWIVQNSWGTQWGESGNIRLYPQNTCGILNYPYQVY
Turning to B1, the Michaelis-Menten constant (Km) was found to be 32 µM with AURANOFIN [1], 49 µM in the data set with AURANOFIN [2], 27 µM with AURANOFIN [3] and 47 µM with AURANOFIN [4].

One may read the Km as the substrate concentration at which the rate is half of its maximum.
